# Results published in patent US7531661B2, “Indane compounds as CCR5 antagonists” (SmithKline Beecham Corporation, priority 2002, dated 2009).
# Target: T1, human CCR5 chemokine receptor (Homo sapiens, UniProt P51681)
# T1 construct: host or cells: Chinese Hamster Ovary (CHO) cells; membranes prepared from the cell pellet
# Assay: CC-Chemokine Receptor-5 Binding by Scintillation Proximity Assay (CCR5 SPA), displacement of 125I-MIP1α
# Conditions: standards plate, 14-point concentration-response curve in triplicate, starting concentration 1 μM
# Procedure: CC-Chemokine Receptor-5 Binding by Scintillation Proximity Assay (CCR5 SPA)
# Scintillation Proximity Assay for the Human CC-Chemokine Receptor, CCR-5
# This protocol describes a high-throughput screen using SPA binding to identify compounds that inhibit binding of ^125I-MIP1α to the human CCR5 chemokine receptor.
# Human CCR5 receptors were expressed in Chinese Hamster Ovary (CHO) cells, registration # 12025. Cells were grown in suspension and a 50 to 80 ml CCR5 cell pellet was prepared. […]
# The saturation curve binding experiment is performed by adding varying amounts of [^125I]MIP1α (0-8.5 nM to membranes and beads in concentrations chosen from the optimal protein/bead ratio. The data is analyzed using a non-linear curve-fitting program. The Kd and Bmax are derived from the curve. […]
# T1 sequence (P51681 whole entry): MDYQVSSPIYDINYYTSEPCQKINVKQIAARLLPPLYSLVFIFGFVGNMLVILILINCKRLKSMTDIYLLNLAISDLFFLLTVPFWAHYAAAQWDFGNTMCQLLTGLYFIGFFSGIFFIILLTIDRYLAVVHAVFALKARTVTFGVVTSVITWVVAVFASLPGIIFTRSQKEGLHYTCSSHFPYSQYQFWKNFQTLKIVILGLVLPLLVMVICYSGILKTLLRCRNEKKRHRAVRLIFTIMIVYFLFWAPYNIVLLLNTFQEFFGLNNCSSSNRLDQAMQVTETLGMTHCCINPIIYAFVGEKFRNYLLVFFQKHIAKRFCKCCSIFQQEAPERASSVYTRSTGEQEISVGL
substance,measurement,value
MIP1α: standard compound of the CCR5 SPA; natural chemokine ligand of CCR5,average historical pKi obtained with MIP1α,7.6
